According to the supplement of paper PMC12042874:
± gives the uncertainty stated by the source.

assay: amyloid nucleation score (Sup35N fusion, yeast selection) (log enrichment); library NNK3; higher = more nucleation; inactive = no reads after selection
Procedure, shortened: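 Random libraries were run with three technical output replicates. In each, psi-negative yeast expressing Sup35N fused to peptides of 20 random codons were induced 24 hours with 100 μM copper sulfate and grown 7 days at 30°C on medium lacking adenine and uracil, and input and output plasmid inserts were Illumina-sequenced. The nucleation score is the DiMSum log enrichment of output over input reads, centred on the mode score of non-aggregating sequences, and sequences under 100 input reads were excluded.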

Substance	amyloid nucleation score
ECSRNAVCF	inactive
CAYVENSCGTILVCALYCGS	inactive
DYALALVFAYCYEDNRMCCP	inactive
YCSYQNR	inactive
LQMYWIIV	inactive
AWSLVGMHAVNNFHLKQEFL	inactive
VANYGQVQHWYRGYVEDEGL	inactive
QEYEGLRDSVKTVEGYVWLM	inactive
MINVPSVSYTMSSVIYTSFK	2.39 ± 0.055
CIMALGSNVLFRLEN	1.51 ± 0.091
MLHLGTCEIILAYHHDMKML	inactive
QFHYYVLMIRSVIPFIALWK	inactive
VLRAGELLF	inactive
RISSCSYHRVRVHVDTWAHV	inactive
CSRSAENNFMMNLLNTIRVL	inactive
MYYRTRQELTSCPRNQNIL	-0.069 ± 0.85
SDDDSYLWSSLFQA	inactive
RKVEG	inactive
EVCLGVSGRHGANSVVIDWT	inactive
LNFTCEVGGVYEVDVNSCLL	inactive
WLHKH	inactive
NDKLWQWMGNISVRCFFINV	inactive
CNIVSMFGCSGVMMACAAVV	inactive
DFSGVSLDVITRRCLGFIGA	inactive
IFIQLLPYVFSTVEVSDFVG	0.625 ± 0.38
MVTLKQYLYSG	1.05 ± 0.2
VIALDVNL	inactive

Substance	amyloid nucleation score
GIGRDCNVSGALCQRAVANV	inactive
WSFMYVYVC	1.71 ± 0.06
NFAGMFVGLMPWHVCDTTCR	inactive
DSIVICQFIFDIKFLDKRKC	1.77 ± 0.085
FWLRAVSLSWLMIEKKYMLR	inactive
SFHTHRGYNG	inactive
GSDEEESLNCSYASSLTSVC	inactive
TSYVLWLSRLYFVANPSDYS	inactive
TFCMLCYQNSIFTVYNSEYQ	3.36 ± 0.064
LQDMPGNGFPVWVDISFSSY	inactive
PTLYRQNGLLWLVDGEKLIR	inactive
PDVFYILVTALWDVRNSNSF	inactive
GVGPVGRF	inactive
ARWNAI	inactive
QIMIIISMRVSNMCGVSYLG	inactive
MIGLDDWVLALRVRRCSLLV	inactive
KFTFMQIKISPFDTCIQGWW	-0.067 ± 0.4
GSCFVKEVSGGHMLGS	inactive
NLLVLTDSVYIPLSHPYPNR	0.493 ± 0.22
LCRLLVSTWNSASSFFCRKL	inactive
ANLRSLTR	inactive
VCGASGCKWAVTNSRHDGNG	inactive
WYDGQRFCRELYNCPSAPGL	inactive
KVSDKPHHKRGVGLDLMMMD	inactive
FLGIDAPDWSMVSKAIGRMG	inactive
MLIGWC	inactive
FLLSVMRELSKYYYIIFSTS	inactive

Substance	amyloid nucleation score
LAITLRLLFVNIIFTDPDLY	inactive
CWTAPLSKFLRVWVTIPYNL	inactive
LDCFCSPVKVTWH	0.146 ± 0.21
IYGGCIFYRMSQCARMDTGE	inactive
KYWDPQFP	inactive
GKYCLNDSCPFHY	inactive
VQCRSHWHWRRPGPEARSVW	inactive
YDLGIGNKHVRYLWGPARKK	inactive
ASCAWNGWTLIFLFYRCYFQ	inactive
WYRFPCFFLYCDAWMILNFA	inactive
FFFRLDCRLYS	inactive
RMYACSWGKSDLSCLMSFGK	inactive
NTIVLILHYFYNSMLASSVI	inactive
IYTFSCDIYCNMSFCLWFDN	2 ± 0.088
NYSAFRGSMIV	inactive
IILRTWVSTLQSNSAIEVTL	inactive
VFEVEPNLGIGYSAKACNVG	inactive
VMFCFKRHLL	0.922 ± 0.15
RWKLFWIHDR	1.16 ± 0.14
NIPVSYYVVNGLIAEMLFIS	0.409 ± 0.27
VMSGAKPARSLFLSTLQHIS	inactive
CGMRNLR	inactive
SAEVAYGSFVYAGSWCRSVR	inactive
SIRNFVTSENTVLSDIKPWR	inactive
KMGPILKCPR	inactive
FMVDTHFGNAFCFYMYCC	2.26 ± 0.051
